{
  "source": "paper PMC3973293",
  "about": "“A tRNA splicing operon: Archease endows RtcB with dual GTP/ATP cofactor specificity and accelerates RNA ligation” (Nucleic Acids Research, 2014)",
  "binders": {"B1": {"name": "Pyrococcus horikoshii Archease (natural protein)", "chain": "MLKKWEHYEHTADIGIRGYGDSLEEAFEAVAIALFDVMVNVNKVEKKEVREIEVEAEDLEALLYSFLEELLVIHDIEGLVFRDFEVKIERVNGKYRLRAKAYGEKLDLKKHEPKEEVKAITYHDMKIERLPNGKWMAQLVPDI"}, "B2": {"name": "P. horikoshii RtcB (Pyrococcus horikoshii OT3) (protein)", "chain 1": "MVVPLKRIDKIRWEIPKFDKRMRVPGRVYADEVLLEKMKNDRTLEQATNVAMLPGIYKYSIVMPDGHQGYGFPIGGVAAFDVKEGVISPGGIGYDIN", "chain 2": "CGVRLIRTNLTEKEVRPRIKQLVDTLFKNVPSGVGSQGRIKLHWTQIDDVLVDGAKWAVDNGYGWERDLERLEEGGRMEGADPEAVSQRAKQRGAPQLGSLGSGNHFLEVQVVDKIFDPEVAKAYGLFEGQVVVMVHTGSRGLGHQVASDYLRIMERAIRKYRIPWPDRELVSVPFQSEEGQRYFSAMKAAANFAWANRQMITHWVRESFQEVFKQDPEGDLGMDIVYDVAHNIGKVEEHEVDGKRVKVIVHRKGATRAFPPGHEAVPRLYRDVGQPVLIPGSMGTASYILAGTEGAMKETFGSTCHGAGRVLSRKAATRQYRGDRIRQELLNRGIYVRAASMRVVAEEAPGAYKNVDNVVKVVSEAGIAKLVARMRPIGVAKG", "notes": "intein-free mature ligase"}, "B3": {"name": "RtcB·Archease (Pyrococcus horikoshii OT3) (protein)", "chain 1": "B2 chain 1", "chain 2": "B2 chain 2", "notes": "Archease untagged as described, codon-optimised, Leu inserted after ATG, E. coli BL21, 16 kDa, mostly monomer; with Protein archease"}, "B4": {"name": "RtcB·Archease (Pyrococcus horikoshii OT3; K870A) (protein)", "chain 1": "B2 chain 1", "chain 2": "B2 chain 2 with K383A", "notes": "as for B3"}},
  "key": {"[1]": {"target": "T1, Native Pyrococcus horikoshii RtcB (Pyrococcus horikoshii) (UniProt O59245)", "T1 sequence": "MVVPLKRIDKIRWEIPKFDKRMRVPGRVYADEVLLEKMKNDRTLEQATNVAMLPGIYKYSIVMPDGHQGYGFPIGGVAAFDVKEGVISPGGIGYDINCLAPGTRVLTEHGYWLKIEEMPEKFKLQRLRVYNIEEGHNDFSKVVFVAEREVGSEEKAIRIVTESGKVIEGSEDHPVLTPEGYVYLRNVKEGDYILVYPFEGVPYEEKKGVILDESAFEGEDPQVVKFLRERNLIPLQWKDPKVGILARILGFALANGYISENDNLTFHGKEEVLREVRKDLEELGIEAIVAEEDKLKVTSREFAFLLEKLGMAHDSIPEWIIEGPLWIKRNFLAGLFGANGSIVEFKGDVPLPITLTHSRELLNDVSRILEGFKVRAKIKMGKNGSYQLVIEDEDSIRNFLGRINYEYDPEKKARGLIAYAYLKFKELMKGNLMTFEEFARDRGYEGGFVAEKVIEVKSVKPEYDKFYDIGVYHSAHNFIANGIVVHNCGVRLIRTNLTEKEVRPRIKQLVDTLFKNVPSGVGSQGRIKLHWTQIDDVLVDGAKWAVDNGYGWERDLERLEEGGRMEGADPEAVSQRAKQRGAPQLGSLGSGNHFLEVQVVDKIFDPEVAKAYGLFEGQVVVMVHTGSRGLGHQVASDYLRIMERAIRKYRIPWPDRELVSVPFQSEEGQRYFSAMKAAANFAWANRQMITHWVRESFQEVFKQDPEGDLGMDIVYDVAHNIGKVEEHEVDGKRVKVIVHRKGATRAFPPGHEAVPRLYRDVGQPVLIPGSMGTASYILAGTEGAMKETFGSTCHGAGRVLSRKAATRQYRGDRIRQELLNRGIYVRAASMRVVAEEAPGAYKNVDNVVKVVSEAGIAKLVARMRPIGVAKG"}, "[2]": {"substrate": "Nc1nc2c(ncn2[C@@H]2O[C@H](COP(=O)(O)OP(=O)(O)OP(=O)(O)O)[C@@H](O)[C@H]2O)c(=O)[nH]1", "experiment": "single-turnover RNA ligation, FAM-RNA gel assay", "type": "biochemical, Pyrococcus horikoshii", "conditions": "apparent Km, RtcB 5 uM, MnCl2 0.25 mM, NaCl 300 mM, Bis-Tris pH 7.0, 70 °C, 10-nt RNA substrates 1.0 uM each, varied: cofactor"}, "[3]": {"substrate": "Nc1nc2c(ncn2[C@H]2C[C@H](O)[C@@H](COP(=O)(O)OP(=O)(O)OP(=O)(O)O)O2)c(=O)[nH]1", "experiment": "single-turnover RNA ligation, FAM-RNA gel assay", "type": "biochemical, Pyrococcus horikoshii", "conditions": "apparent Km, Archease 100 nM, RtcB 5 uM, MnCl2 0.25 mM, NaCl 300 mM, Bis-Tris pH 7.0, 70 °C, 10-nt RNA substrates 1.0 uM each, varied: cofactor"}, "[4]": {"substrate": "Nc1ncnc2c1ncn2[C@@H]1O[C@H](COP(=O)(O)OP(=O)(O)OP(=O)(O)O)[C@@H](O)[C@H]1O", "experiment": "single-turnover RNA ligation, FAM-RNA gel assay", "type": "biochemical, Pyrococcus horikoshii", "conditions": "apparent Km, Archease 800 nM, RtcB 5 uM, MnCl2 0.25 mM, NaCl 300 mM, Bis-Tris pH 7.0, 70 °C, 10-nt RNA substrates 1.0 uM each, varied: cofactor"}, "[5]": {"substrate": "O=P(O)(O)OP(=O)(O)OP(=O)(O)OC[C@H]1O[C@@H](n2cnc3c(O)ncnc32)[C@H](O)[C@@H]1O", "experiment": "single-turnover RNA ligation, FAM-RNA gel assay", "type": "biochemical, Pyrococcus horikoshii", "conditions": "apparent Km, Archease 100 nM, RtcB 5 uM, MnCl2 0.25 mM, NaCl 300 mM, Bis-Tris pH 7.0, 70 °C, 10-nt RNA substrates 1.0 uM each, varied: cofactor"}, "[6]": {"substrate": "Nc1ncnc2c1ncn2[C@@H]1O[C@H](COP(=O)(O)OP(=O)(O)OP(=O)(O)O)[C@@H](O)[C@H]1O", "experiment": "single-turnover RNA ligation, FAM-RNA gel assay", "type": "biochemical, Pyrococcus horikoshii", "conditions": "apparent Km, Archease 800 nM, RtcB 5 uM, MnCl2 0.25 mM, NaCl 300 mM, Bis-Tris pH 7.0, 70 °C, 10-nt RNA substrates 1.0 uM each, varied: cofactor", "from_the_text": "single-turnover RNA ligation, FAM-RNA gel assay on RtcB·Archease | the ATP KM* value for K480A RtcB was nearly identical to the ATP KM* value", "remark": "listed apart in the source"}},
  "note": "Positions count from the first letter of the chain named. Names and notes keep the numbering of the source.",
  "data": [
    {"binder": "B1", "values": [
      {"measurement": "RNA ligation product formed by 5 μM RtcB with Archease titrated in (activation levels off at 100 nM Archease; 92 nM product without Archease), 70°C, 30 min", "setting": "[1]", "value": 316, "unit": "nM"}
    ]},
    {"binder": "B2", "values": [
      {"measurement": "Km", "setting": "[2]", "value": "2.4 ± 0.2", "unit": "µM"}
    ]},
    {"binder": "B3", "values": [
      {"measurement": "Km", "setting": "[2]; Archease 100 nM", "value": "1.5 ± 0.3", "unit": "µM"},
      {"measurement": "Km", "setting": "[3]", "value": "1.8 ± 0.1", "unit": "µM"},
      {"measurement": "Km", "setting": "[4]", "value": "3.4 ± 1.1", "unit": "µM"},
      {"measurement": "Km", "setting": "[5]", "value": "1.9 ± 0.4", "unit": "µM"}
    ]},
    {"binder": "B4", "values": [
      {"measurement": "Km", "setting": "[6]", "value": "3.0 ± 1.0", "unit": "µM"}
    ]}
  ]
}
